Assay [1] concerns the target T1, recombinant human IL-6 (human, UniProt P05231 30-212, labeled with radioactive iodine).
T1 construct: Labeled probe in solution, added to wells that carry the synthetic peptides; also called IL-6 ligand; Interleukin-6
Put plainly: radioiodinated IL-6 on peptide array.

Assay [2] has as its target T1, recombinant human IL-6. Put plainly: radioiodinated IL-6 on peptide array. On the procedure: Synthetic peptide arrays were constructed in 96-well microtiter plates in accordance with the method set forth in WO 91/02714 (Saxinger), and used to test the binding of recombinant human IL-6 that had been labeled with radioactive iodine (radiolabeling by standard methods). After incubating the radiolabeled IL-6 ligand in a well with each synthetic peptide, a washing step was performed to remove unbound label, and the relative level of radioactivity remaining in each well of the plate was evaluated to determine the relative affinity of each peptide for IL-6 ligand.
The source holds these as a separate data set.

Read-outs that look alike come from different tables or passages of the source.

For SLTSDTLYMVRMAAYTDEGGKDGP [Peptide E59], the Counts/minute bound with recombinant human IL-6 [1] was 1270 counts/minute.
In the case of SLTTKAVLLVRKFQNS [Peptide B22], the Counts/minute bound with recombinant human IL-6 [2] came out at 12600 counts/minute.
